Experimental data published in patent publication US20260232732A1 (FUNDACI INSTITUT DE RECERCA CONTRA LA LEUC MIA JOSEP …, published 2026).
Where no end group is shown, it is not given here. The star is where a group is joined. Biotin = O=C1N[C@H]2[C@H](CS[C@H]2CCCCC(=O)*)N1

T1: biotin-peptide SSMEDYVNFN (human)
T1 peptide: Biotin-SSMEDYVNFN

T2: biotin-peptide MADDYGSEST (human)
T2 peptide: Biotin-MADDYGSEST

T3: biotin-peptide TSSMEDYVNF (human)
T3 peptide: Biotin-TSSMEDYVNF

T4: biotin-peptide TDFTSPIPNM (human)
T4 peptide: Biotin-TDFTSPIPNM

T5: biotin-peptide KNNVRQFAS (human)
T5 peptide: Biotin-KNNVRQFAS

T6: biotin-peptide SESTSSMEDY (human)
T6 peptide: Biotin-SESTSSMEDY

T7: biotin-peptide TSPIPNMADD (human)
T7 peptide: Biotin-TSPIPNMADD

T8: biotin-peptide IPNMADDYGS (human)
T8 peptide: Biotin-IPNMADDYGS

T9: biotin-peptide MTPTDFTSPI (human, also: prints MTPTDFTSP, without I10)
T9 peptide: Biotin-MTPTDFTSPI

T10: biotin-peptide DYGSESTSSM (human)
T10 peptide: Biotin-DYGSESTSSM

T11: biotin-peptide TDFYCEKNNV (human)
T11 peptide: Biotin-TDFYCEKNNV

T12: biotin-peptide YCEKNNVRQF (human)
T12 peptide: Biotin-YCEKNNVRQF

T13: biotin-peptide FNFTDFYCEK (human)
T13 peptide: Biotin-FNFTDFYCEK

T14: biotin-peptide SMEDYVNFNF (human)
T14 peptide: Biotin-SMEDYVNFNF

T15: biotin-peptide MEDYVNFNFT (human)
T15 peptide: Biotin-MEDYVNFNFT

T16: naked peptide FNFTDFYCEK (human)
T16 peptide: FNFTDFYCEK

T17: naked peptide DYGSESTSSM (human)
T17 peptide: DYGSESTSSM

T18: naked peptide YCEKNNVRQF (human)
T18 peptide: YCEKNNVRQF

T19: naked peptide KNNVRQFAS (human)
T19 peptide: KNNVRQFAS

T20: naked peptide SMEDYVNFNF (human)
T20 peptide: SMEDYVNFNF

T21: naked peptide SESTSSMEDY (human)
T21 peptide: SESTSSMEDY

T22: naked peptide MADDYGSEST (human)
T22 peptide: MADDYGSEST

T23: naked peptide TSPIPNMADD (human)
T23 peptide: TSPIPNMADD

T24: naked peptide TDFTSPIPNM (human)
T24 peptide: TDFTSPIPNM

T25: naked peptide SSMEDYVNFN (human)
T25 peptide: SSMEDYVNFN

T26: naked peptide TDFYCEKNNV (human)
T26 peptide: TDFYCEKNNV

T27: naked peptide IPNMADDYGS (human)
T27 peptide: IPNMADDYGS

T28: naked peptide TSSMEDYVNF (human)
T28 peptide: TSSMEDYVNF

T29: naked peptide YVNFNFTDFY (human)
T29 peptide: YVNFNFTDFY

T30: naked peptide MTPTDFTSPI (human)
T30 peptide: MTPTDFTSPI


Legend:
[1] = target: T1, biotin-peptide SSMEDYVNFN; experiment: ELISA biotin-peptide; scFv 10 ug/mL; repII
Procedure: (§1) The peptides were synthesized naked or with a N-terminal Biotin modification with a purity of >98%. All four scFvs were verified by ELISA that can be detected with anti-His antibodies. ELISA was performed for scFv-peptide binding validation. Briefly, naked peptides were coated (50 μg/mL) in 0.58M carbonate-bicarbonate buffer pH9.5, 100 μL/well, 4° C. O/N. Then after blocking (3% BSA-PBS, 300 μL/well 37° C. 1.5 h) and washing (PBS+Tween-20 0.05% v/v (0.05% PBST), wells were incubated with each purified scFv antibody at concentration of 1 μg/mL in PBS at 37° C. 1 h. After washing (0.05% PBST), wells were incubated with secondary antibodies (goat anti-His IgG-HRP) in PBS, 37° C., 30 min. After washing, and incubation with TMB substrate, reactions were stopped with 2M HCl and reading was quantified at OD450.
(§2) ELISA with biotin-conjugated peptides (5 μg/mL) was performed very similar to described above with minor modifications.

[2] = target: T2, biotin-peptide MADDYGSEST; experiment: ELISA biotin-peptide; scFv 10 ug/mL; repII
Procedure: as §1, §2

[3] = target: T3, biotin-peptide TSSMEDYVNF; experiment: ELISA biotin-peptide; scFv 10 ug/mL; repII
Procedure: as §1, §2

[4] = target: T4, biotin-peptide TDFTSPIPNM; experiment: ELISA biotin-peptide; scFv 10 ug/mL; repII
Procedure: as §1, §2

biotin-peptide KNNVRQFAS = target: T5, biotin-peptide KNNVRQFAS; experiment: ELISA biotin-peptide; scFv 10 ug/mL; repII
Procedure: as §1, §2

[5] = target: T6, biotin-peptide SESTSSMEDY; experiment: ELISA biotin-peptide; scFv 10 ug/mL; repII
Procedure: as §1, §2

[6] = target: T7, biotin-peptide TSPIPNMADD; experiment: ELISA biotin-peptide; scFv 10 ug/mL; repII
Procedure: as §1, §2

[7] = target: T8, biotin-peptide IPNMADDYGS; experiment: ELISA biotin-peptide; scFv 10 ug/mL; repII
Procedure: as §1, §2

[8] = target: T9, biotin-peptide MTPTDFTSPI; experiment: ELISA biotin-peptide; scFv 10 ug/mL; repII
Procedure: as §1, §2

[9] = target: T10, biotin-peptide DYGSESTSSM; experiment: ELISA biotin-peptide; scFv 10 ug/mL; repII
Procedure: as §1, §2

[10] = target: T11, biotin-peptide TDFYCEKNNV; experiment: ELISA biotin-peptide; scFv 10 ug/mL; repII
Procedure: as §1, §2

[11] = target: T12, biotin-peptide YCEKNNVRQF; experiment: ELISA biotin-peptide; scFv 10 ug/mL; repII
Procedure: as §1, §2

[12] = target: T13, biotin-peptide FNFTDFYCEK; experiment: ELISA biotin-peptide; scFv 10 ug/mL; repII
Procedure: as §1, §2

[13] = target: T14, biotin-peptide SMEDYVNFNF; experiment: ELISA biotin-peptide; scFv 10 ug/mL; repII
Procedure: as §1, §2

[14] = target: T15, biotin-peptide MEDYVNFNFT; experiment: ELISA biotin-peptide; scFv 10 ug/mL; repII
Procedure: as §1, §2

naked peptide FNFTDFYCEK = target: T16, naked peptide FNFTDFYCEK; experiment: ELISA naked peptide; scFv 1 ug/mL; repII
Procedure: as §1
(§3) Then a library of overlapping peptides were designed and constructed separately to produce 16 different peptides, covering full antigen sequence of total 48 aa. Peptide size was 10aa, with 7aa overlapping and ELISA screening of scFv against each peptide was performed in duplicate. Screening was performed using naked peptides in a standard plate or biotinylated peptides using avidin-plates.

naked peptide DYGSESTSSM = target: T17, naked peptide DYGSESTSSM; experiment: ELISA naked peptide; scFv 1 ug/mL; repII
Procedure: as §1, §3

naked peptide YCEKNNVRQF = target: T18, naked peptide YCEKNNVRQF; experiment: ELISA naked peptide; scFv 1 ug/mL; repII
Procedure: as §1, §3

naked peptide KNNVRQFAS = target: T19, naked peptide KNNVRQFAS; experiment: ELISA naked peptide; scFv 1 ug/mL; repII
Procedure: as §1, §3

naked peptide SMEDYVNFNF = target: T20, naked peptide SMEDYVNFNF; experiment: ELISA naked peptide; scFv 1 ug/mL; repII
Procedure: as §1, §3

naked peptide SESTSSMEDY = target: T21, naked peptide SESTSSMEDY; experiment: ELISA naked peptide; scFv 1 ug/mL; repII
Procedure: as §1, §3

naked peptide MADDYGSEST = target: T22, naked peptide MADDYGSEST; experiment: ELISA naked peptide; scFv 1 ug/mL; repII
Procedure: as §1, §3

naked peptide TSPIPNMADD = target: T23, naked peptide TSPIPNMADD; experiment: ELISA naked peptide; scFv 1 ug/mL; repII
Procedure: as §1, §3

naked peptide TDFTSPIPNM = target: T24, naked peptide TDFTSPIPNM; experiment: ELISA naked peptide; scFv 1 ug/mL; repII
Procedure: as §1, §3

naked peptide SSMEDYVNFN = target: T25, naked peptide SSMEDYVNFN; experiment: ELISA naked peptide; scFv 1 ug/mL; repII
Procedure: as §1, §3

naked peptide TDFYCEKNNV = target: T26, naked peptide TDFYCEKNNV; experiment: ELISA naked peptide; scFv 1 ug/mL; repII
Procedure: as §1, §3

naked peptide IPNMADDYGS = target: T27, naked peptide IPNMADDYGS; experiment: ELISA naked peptide; scFv 1 ug/mL; repII
Procedure: as §1, §3

naked peptide TSSMEDYVNF = target: T28, naked peptide TSSMEDYVNF; experiment: ELISA naked peptide; scFv 1 ug/mL; repII
Procedure: as §1, §3

naked peptide YVNFNFTDFY = target: T29, naked peptide YVNFNFTDFY; experiment: ELISA naked peptide; scFv 1 ug/mL; repII
Procedure: as §1, §3

naked peptide MTPTDFTSPI = target: T30, naked peptide MTPTDFTSPI; experiment: ELISA naked peptide; scFv 1 ug/mL; repII
Procedure: as §1, §3

Row | OD450 [1] | OD450 [2] | OD450 [3] | OD450 [4] | OD450 (biotin-peptide KNNVRQFAS) | OD450 [5] | OD450 [6] | OD450 [7] | OD450 [8] | OD450 [9] | OD450 [10] | OD450 [11] | OD450 [12] | OD450 [13] | OD450 [14] | OD450 (naked peptide FNFTDFYCEK) | OD450 (naked peptide DYGSESTSSM) | OD450 (naked peptide YCEKNNVRQF) | OD450 (naked peptide KNNVRQFAS) | OD450 (naked peptide SMEDYVNFNF) | Binder | further results
1 | 0.1 OD | 0.09 OD | 0.06 OD | 0.12 OD | 0.07 OD | 0.05 OD | 0.05 OD | 0.09 OD | 0.1 OD | 0.09 OD | 0.05 OD | 0.1 OD | 1.35 OD | 0.05 OD | 0.08 OD | 0.03 OD | 0.02 OD | 0.07 OD | 0.04 OD | 0.03 OD | Comparative antibody 2 (Comp-2) scFv, 243LO326 (VH SEQ ID NO: 51 and VL SEQ ID NO: 52 of WO 2022/195028 A2), His-tagged (scFv) scFv: QVQLVQSGAEVKKPGASVKVSCKASGYTFTSYWMHWVRQAPGQGLEWIGVIYPGNSDTRYNQKFKGRVTITRDTSASTAYMELSSLRSEDTAVYYCTRDYYSNYVYYYAMDYWGQGTTVTVSSGGGGSGGGGSGGGGSGGGGSDIVMTQTPLSLPVTPGEPASISCRSSQSLVHPNRNTYLHWYLQKPGQSPQLLIYKVSNRFSGVPDRFSGSGSGTDFTLKISRVEAEDVGVYYCSQSTHVPWTFGQGTKLEIKHHHHHH | OD450 (naked peptide SESTSSMEDY): 0.02 OD; OD450 (naked peptide MADDYGSEST): 0.02 OD; OD450 (naked peptide TSPIPNMADD): 0.02 OD; OD450 (naked peptide TDFTSPIPNM): 0.05 OD; OD450 (naked peptide SSMEDYVNFN): 0.09 OD; OD450 (naked peptide TDFYCEKNNV): 0.03 OD; OD450 (naked peptide IPNMADDYGS): 0.02 OD; OD450 (naked peptide TSSMEDYVNF): 0.03 OD; OD450 (naked peptide YVNFNFTDFY): 0.01 OD; OD450 (naked peptide MTPTDFTSPI): 0.03 OD
2 | 2.3 OD | 0.16 OD | 1.92 OD | 0.09 OD | 0.09 OD | 0.09 OD | 0.06 OD | 0.1 OD | 0.09 OD | 0.07 OD | 0.06 OD | 0.06 OD | 0.06 OD | 2.38 OD | 2.32 OD | 0.03 OD | 0.02 OD | 0.03 OD | 0.03 OD | 1.48 OD | CCR9_HUM2 scFv (humanized anti-CCR9 scFv, SEQ ID NO: 17 with C-terminal 6xHis tag) (scFv) scFv: QVQLVQSGAEVKKPGASVKVSCTASGYSFTDYIIYWVKQAHGQSLEWMGYIDPNNYNTRYSQKFQGKVTITVDKSSTSAYMELNSLTSDDTAVYYCARDVYWGQGTTVTVSSGGGGSGGGGSGGGGSGGGGSDVVMTQTPLSLSVTPGQPASISCRSSQSLVHSNGKTYLQWYLQKPGQSPKLLIYKVSNRFSGVPDRFSGSGSGTDFTLKISRVEAEDVGVYFCAQSTHVWTFGGGTKVEIKRAHHHHHH | OD450 (naked peptide SESTSSMEDY): 0.03 OD; OD450 (naked peptide MADDYGSEST): 0.03 OD; OD450 (naked peptide TSPIPNMADD): 0.02 OD; OD450 (naked peptide TDFTSPIPNM): 0.04 OD; OD450 (naked peptide SSMEDYVNFN): 0.99 OD; OD450 (naked peptide TDFYCEKNNV): 0.03 OD; OD450 (naked peptide IPNMADDYGS): 0.02 OD; OD450 (naked peptide TSSMEDYVNF): 0.03 OD; OD450 (naked peptide YVNFNFTDFY): 0.02 OD; OD450 (naked peptide MTPTDFTSPI): 0.04 OD
